The source of these data is publication PMC7485968 (2020).

Assay [1] addresses T1, His-tagged ERG (Homo sapiens (Human), UniProt P11308).
T1 chain: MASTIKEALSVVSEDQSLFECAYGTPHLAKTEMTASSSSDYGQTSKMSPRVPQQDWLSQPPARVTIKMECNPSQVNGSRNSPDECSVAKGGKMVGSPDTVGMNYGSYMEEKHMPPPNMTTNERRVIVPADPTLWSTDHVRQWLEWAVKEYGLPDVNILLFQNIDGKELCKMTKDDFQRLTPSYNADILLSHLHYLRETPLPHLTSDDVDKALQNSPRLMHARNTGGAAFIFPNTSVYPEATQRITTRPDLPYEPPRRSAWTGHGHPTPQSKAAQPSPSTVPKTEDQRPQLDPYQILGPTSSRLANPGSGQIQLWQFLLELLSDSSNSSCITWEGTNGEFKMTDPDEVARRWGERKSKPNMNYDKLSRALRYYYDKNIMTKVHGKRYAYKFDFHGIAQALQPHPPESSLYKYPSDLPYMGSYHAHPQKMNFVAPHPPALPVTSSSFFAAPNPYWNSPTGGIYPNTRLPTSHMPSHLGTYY
The assay is described as follows: His-tag pull-down; AlphaScreen. (In general: In Alpha technology, singlet oxygen from a donor bead excites a nearby acceptor bead.)

The target of assay [2] is T1, His-tagged ERG. The assay is described as follows: His-tag pull-down.

B1: FLAG-GST-EWS 1-355aa (protein)
chain: MASTDYSTYSQAAAQQGYSAYTAQPTQGYAQTTQAYGQQSYGTYGQPTDVSYTQAQTTATYGQTAYATSYGQPPTGYTTPTAPQAYSQPVQGYGTGAYDTTTATVTTTQASYAAQSAYGTQPAYPAYGQQPAATAPTRPQDGNKPTETSQPQSSTGGYNQPSLGYGQSNYSYPQVPGSYPMQPVTAPPSYPPTSYSSTQPTSYDQSSYSQQNTYGQPSSYGQQSSYGQQSSYGQQPPTSYPPQTGSYSQAPSQYSQQSSSYGQQSSFRQDHPSSMGVYGQESGGFSGPGENRSMSGPDNRGRGRGGFDRGGMSRGGRGGGRGGMGSAGERGGFNKPGGPMDEGPDLDLGPPVDPD
With B1, the binding result with His-tagged ERG [1] is given as “binds”.

B2: FLAG-GST-EWS 459-656aa (protein)
chain: PPREGRGMPPPLRGGPGGPGGPGGPMGRMGGRGGDRGGFPPRGPRGSRGNPSGGGNVQHRAGDWQCPNPGCGNQNFAWRTECNQCKAPKPEGFLPPPFPPPGGDRGRGGPGGMRGGRGGLMDRGGPGGMFRGGRGGDRGGFRGGRGMDRGGFGGGRRGGPGGPPGPLMEQMGGRRGGRGGPGKMDKGEHRQERRDRPY
Consider B2, for which the binding result with His-tagged ERG [2] is “no binding”.
